Values of other authors, collected in patent publication US9956303B2, “Anti-met therapy for previously diagnosed cancer patients” (GE HEALTHCARE LIMITED, priority 2011, dated 2018).

Tests used:
[1] = in vivo
[2] = molecular target: T1, c-Met (Homo sapiens, UniProt P08581); set-up: host or cells: NSCLC patients' tumours; settings: for median overall-survival: analysed by retrospective IHC of archive biopsy samples, p=0.002
[3] = molecular target: T1, c-Met; settings: mouse, in vivo
[4] = molecular target: T2, HGF (Homo sapiens, UniProt P14210); settings: combination with ECX
T2 construct: host or cells: patients
T2 sequence (P14210 32-728): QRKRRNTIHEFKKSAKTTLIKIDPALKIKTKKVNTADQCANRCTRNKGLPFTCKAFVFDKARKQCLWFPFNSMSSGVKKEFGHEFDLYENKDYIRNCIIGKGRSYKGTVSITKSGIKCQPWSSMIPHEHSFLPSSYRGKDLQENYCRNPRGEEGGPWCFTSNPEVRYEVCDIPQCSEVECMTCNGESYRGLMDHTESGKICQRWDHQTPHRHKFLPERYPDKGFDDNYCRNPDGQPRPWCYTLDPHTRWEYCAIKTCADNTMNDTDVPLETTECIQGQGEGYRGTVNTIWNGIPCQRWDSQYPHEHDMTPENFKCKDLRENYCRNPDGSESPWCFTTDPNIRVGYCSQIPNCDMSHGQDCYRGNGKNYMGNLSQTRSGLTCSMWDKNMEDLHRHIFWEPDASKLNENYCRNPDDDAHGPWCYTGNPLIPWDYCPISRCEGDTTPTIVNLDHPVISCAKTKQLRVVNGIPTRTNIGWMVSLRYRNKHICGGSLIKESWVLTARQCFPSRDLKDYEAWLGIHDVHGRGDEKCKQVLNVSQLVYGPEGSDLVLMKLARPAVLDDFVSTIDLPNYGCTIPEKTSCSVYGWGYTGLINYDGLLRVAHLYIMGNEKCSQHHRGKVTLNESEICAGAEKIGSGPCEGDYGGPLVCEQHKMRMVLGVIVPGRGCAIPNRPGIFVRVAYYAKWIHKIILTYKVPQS

T1 sequence (P08581 25-1390): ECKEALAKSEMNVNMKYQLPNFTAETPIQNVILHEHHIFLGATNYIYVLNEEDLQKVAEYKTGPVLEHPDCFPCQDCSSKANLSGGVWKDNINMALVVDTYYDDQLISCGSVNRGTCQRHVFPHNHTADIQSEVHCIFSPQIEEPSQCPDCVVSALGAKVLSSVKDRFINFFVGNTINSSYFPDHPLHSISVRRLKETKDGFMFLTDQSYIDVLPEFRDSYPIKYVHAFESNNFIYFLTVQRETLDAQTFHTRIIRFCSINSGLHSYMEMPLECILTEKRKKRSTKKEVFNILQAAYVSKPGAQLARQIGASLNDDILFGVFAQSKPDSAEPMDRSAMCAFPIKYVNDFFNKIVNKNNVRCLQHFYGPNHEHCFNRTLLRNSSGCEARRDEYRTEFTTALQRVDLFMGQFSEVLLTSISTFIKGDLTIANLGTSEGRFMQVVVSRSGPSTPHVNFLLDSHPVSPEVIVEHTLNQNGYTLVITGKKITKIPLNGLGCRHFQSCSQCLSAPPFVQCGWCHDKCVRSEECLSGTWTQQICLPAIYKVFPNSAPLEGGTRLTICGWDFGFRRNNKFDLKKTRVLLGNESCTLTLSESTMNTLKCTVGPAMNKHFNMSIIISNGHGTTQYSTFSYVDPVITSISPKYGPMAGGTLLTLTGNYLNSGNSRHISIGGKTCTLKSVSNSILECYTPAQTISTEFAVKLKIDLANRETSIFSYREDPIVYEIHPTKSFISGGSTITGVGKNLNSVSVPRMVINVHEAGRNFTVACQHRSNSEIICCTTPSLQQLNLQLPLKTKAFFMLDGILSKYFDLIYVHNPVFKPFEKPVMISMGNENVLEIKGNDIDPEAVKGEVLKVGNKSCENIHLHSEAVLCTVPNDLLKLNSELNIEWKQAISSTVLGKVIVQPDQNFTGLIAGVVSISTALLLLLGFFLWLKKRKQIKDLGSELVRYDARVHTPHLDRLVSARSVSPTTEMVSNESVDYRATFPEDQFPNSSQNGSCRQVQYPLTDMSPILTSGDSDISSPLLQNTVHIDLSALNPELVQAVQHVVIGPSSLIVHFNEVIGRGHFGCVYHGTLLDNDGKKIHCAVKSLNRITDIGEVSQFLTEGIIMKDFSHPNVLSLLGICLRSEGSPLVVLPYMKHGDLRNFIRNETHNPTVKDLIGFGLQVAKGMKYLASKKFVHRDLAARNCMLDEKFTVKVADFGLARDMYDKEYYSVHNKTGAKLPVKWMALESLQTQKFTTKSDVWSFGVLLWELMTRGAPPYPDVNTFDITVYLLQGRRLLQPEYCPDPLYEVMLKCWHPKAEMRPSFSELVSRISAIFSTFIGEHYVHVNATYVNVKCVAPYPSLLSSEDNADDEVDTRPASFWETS

For “MetMAb: a monoclonal antibody blocking c-Met (Roche)”, the combined elimination half-life [1] is given as 190 to 288 h, the “outcome, low c-Met expression” value ([2]; MetMAb in combination with Erlotinib compared to Erlotinib alone) is given as “worse outcome” and the median overall-survival [2] is given as 12.6 months. The “outcome, patient group as a whole” value ([2]; patients with high and low c-Met expression, MetMAb+Erlotinib vs placebo+Erlotinib) was “no differences between the two treatments”.
In the case of “MetMab™ labelled with ^76Br or ^89Zr: anti-c-Met antibody (MetMab) labelled with 76Br or 89Zr for molecular imaging of c-Met”, the “tumour uptake and clearance” value [3] is given as “rapid tumour uptake and slow clearance”.
In the case of `C#Cc1cccc(Nc2ncnc3cc(OCCOC)c(OCCOC)cc23)c1` [Erlotinib, reference compound], the median overall-survival [2] is given as 3.8 months.
In the case of rilotumumab: HGF antibody (Amgen), the “median overall survival vs placebo and ECX” value ([4]; c-Met high tumours (>50% tumour cells positive)) is given as “improved median overall survival” and the “overall survival vs placebo and ECX” value ([4]; c-Met low tumours (≤50% positive)) is given as “trend toward unfavourable overall survival”.
